B1: Genome-derived Neisserial antigen GNA2091 (natural protein, Neisseria meningitidis, UniProt Q9JXE1 1-202, looked up)
chain: CVSAVIGSAAVGAKSAVDRRTTGAQTDDNVMALRIETTARSYLRQNNQTKGYTPQISVVGYNRHLLLLGQVATEGEKQFVGQIARSEQAAEGVYNYITVASLPRTAGDIAGDTWNTSKVRATLLGISPATQARVKIVTYGNVTYVMGILTPEEQAQITQKVSTTVGVQKVITLYQNYVQR
notes: GNA2091, recombinant surface molecule of Neisseria meningitidis
B2: Genome-derived Neisserial antigen GNA1030 (natural protein)
chain: ATYKVDEYHANARFAIDHFNTSTNVGGFYGLTGSVEFDQAKRDGKIDITIPIANLQSGSQHFTDHLKSADIFDAAQYPDIRFVSTKFNFNGKKLVSVDGNLTMHGKTAPVKLKAEKFNCYQSPMEKTEVCGGDFSTTIDRTKWGMDYLVNVGMTKSVRIDIQIEAAKQ

Biological target: T1, Biotinylated human PTX3 (bPTX3) (human, UniProt P26022 18-381, biotin (sites not given))
T1 construct: Long pentraxin 3 (PTX3), human, as m1 but biotinylated; secreted by CHO cells and purified from the supernatant; Same protein as m1 with a biotin label; also called human bPTX3
T1 sequence (P26022 18-381): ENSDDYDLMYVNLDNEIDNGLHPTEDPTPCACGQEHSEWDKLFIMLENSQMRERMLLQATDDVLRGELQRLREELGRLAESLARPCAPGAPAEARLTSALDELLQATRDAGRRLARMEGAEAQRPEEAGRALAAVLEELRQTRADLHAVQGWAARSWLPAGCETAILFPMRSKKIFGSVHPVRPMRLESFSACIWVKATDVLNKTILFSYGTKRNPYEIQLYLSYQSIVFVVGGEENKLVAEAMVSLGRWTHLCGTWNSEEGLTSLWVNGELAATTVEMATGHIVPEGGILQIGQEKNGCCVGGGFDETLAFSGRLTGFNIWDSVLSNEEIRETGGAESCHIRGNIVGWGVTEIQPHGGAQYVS
Assay: ELISA; bPTX3 (0.56–17.92 pmol) on triplicate wells coated with 125 pmol/well of antigen; bound PTX3 from a standard curve of bPTX3; nonlinear fitting, one site binding curve; apparent
Conditions: both partners purified

| Binder | Kd [nM] |
| --- | --- |
| B1 | 4 |
| B2 | 37 |

Reference: paper PMC4364741, “Recognition of Neisseria meningitidis by the Long Pentraxin PTX3 and Its Role as an Endogenous Adjuvant” (PLoS ONE, 2015)
